One assay relates to LNCaP cells. As to the kind of experiment: Growth response of LNCaP vector controls and EBP1 transfectants to DHT and bicalutamide. It is filed as cell-based, human. To be noted: LNCaP EBP1 transfectants (vector controls approximately 70%). On the procedure: Cell Growth Assays: To measure growth in complete media, cells (2×10^4) were seeded in triplicate in individual wells of 12-well tissue culture plates in RPMI-1640 with 10% FBS and cultured for the indicated number of days. Cells were trypsinized, stained with Trypan Blue (0.4%), and counted in a hemacytometer. For soft agar growth assays, increasing concentrations of cells (as indicated) were plated in 35 mm Petri dishes in complete media and 0.3% Difco Bacto Agar over an 0.5% agar layer. Colonies were counted after 10 days of incubation. For studies assessing the effect of dihydrotestosterone (DHT) on cell growth, cells (2×10^4) were plated in 12-well plates in complete media. After a 24-hour attachment period, the medium was replaced with steroid-free medium [phenol red-free RPMI 1640 and 5% charcoal-stripped FBS (Sigma)] for 48 hours. The final concentration of testosterone in the steroid-reduced media was less than 5 pM. After 48 hours of steroid depletion, cells were re-fed with fresh steroid-reduced medium with or without the indicated concentrations of DHT and/or bicalutamide (10 μM), and total cell numbers were assessed 7 days later.

A further assay has as its system C81 cells. As to the kind of experiment: RT-PCR, Western blot and ELISA in C81 EBP1 transfectants. It is filed as cell-based, human. On the procedure:
FIG. 5A-D. Expression of genes associated with androgen independence is decreased in C81 EBP1 transfectants. A. Lysates of logarithmically growing clones of C81 EBP1 transfectants (E1,2) or vector controls (V 1,2) were resolved by SDS-PAGE and immunoblotted for AR, BCL-2, BAD, FLAG, EBP1 and ACTIN as indicated. Representative of 3 experiments. B. Secreted PSA as measured by ELISA. EBP1 and vector control cells were plated at 1×10^6 cells/100 mm dish in complete media. Forty-eight hours later, conditioned media were collected and frozen. PSA activity was assessed by ELISA. Levels of PSA were adjusted to total cell number. Data is representative of 2 experiments. C. Validation of mRNA levels in EBP1 transfectants. Quantitative RT PCR was performed for the KALLIKREIN-2, AGR2 and TSPY genes in EBP1 and vector transfectants. The relative levels of all test mRNAs were normalized to β-ACTIN. Results are representative of 3 experiments using different sets of cells. D. Expression of AGR2 protein in vector and EBP1 C81 transfectants. Lysates of vector control (V) or EBP1 (E) transfected cells grown in complete media were resolved by SDS-PAGE and analyzed by Western blotting with antibody to AGR2.
Microarray Analysis and Bioinformatics. RNA was prepared using the Trizol Reagent as previously described (8). Microarray processing and data analysis was performed at Genome Explorations (Nashville, Tenn.). U133A oligonucleotide arrays (Affymetrix) containing ˜33,000 full length annotated genes together with additional probe sets designed to represent EST sequences were used for the analysis. Only genes with a minimum expression level of 500 were included in this analysis. […] Oncomine analyses were performed by using Oncomine 3.0 (www.oncomine.org). Real Time Quantitative Reverse-Transcription PCR. Both cell culture samples and a commercial panel of cDNAs from normal prostate and prostate tumors (TissueScan, Origene, Rockville, Md.) were examined. The method of Nakanishi et al. (15) was used as previously described. Real-time quantitative RT-PCR was performed on the LightCycler® (Roche) platform. The following forward and reverse primers were selected using Primer Express software and synthesized by the Core Laboratory of University of Maryland School of Medicine: Ebp1, sense: 5′-GCA CGC CAA TAG AAG G-3′ (SEQ ID NO: 16) and antisense: 5′-GTA AAC GGC ATG GCA TC-3′ (SEQ ID NO: 17) kallikrein-2 sense: 5′-CAT CCA GTC TCG GAT TG-3′ (SEQ ID NO: 18) and antisense: 5′-CTC ATA TTG TAG AGC GGG T-3′ (SEQ ID NO: 19), TSPY, sense: 5′-CAGGGCTTCTCATTCCACTC-3′ (SEQ ID NO: 20) and antisense: 5′-CCATCATATTCAACTCAACAA CTGG-3′ (16; SEQ ID NO: 21), AGR2, sense: 5′-ATTGGCAGAGCAGTTTCTCC-3′ (SEQ ID NO: 22) and antisense, 5′-GAGCTGTATCTGCAGGTTCGT (17; SEQ ID NO: 23) 13-Actin, sense: 5′-GCTATCCAGGCTGTGCTATC-3′ (SEQ ID NO: 24) and antisense 5′-TGT CAC GCA CGA TTT CC-3′ (SEQ ID NO: 25). A SYBR®Green PCR Kit was used as per the manufacturer's instructions (Applied Biosystems, Foster City, Calif.) and the analyses were performed in duplicate or triplicate.
Measurement of PSA levels. Serum PSA levels were determined using a PSA ELISA kit from DSL, Inc (Webster, Tex.) as previously described (9).
Western Blot Analysis. Western blot analysis was performed as previously described (19). The Ebp1 antibody was from Upstate (Lake Placid, N.Y.), the polyclonal antibody to actin from Sigma, the AKT and phospho AKT antibodies from Cell Signaling (Beverly, Mass.) and the AGR2 antibody was previously described (20) Cell Growth Assays Cell growth measurement in complete media was performed as described using a hemocytometer (21). For soft agar growth assays, increasing concentrations of cells (as indicated) were plated in 35 mm Petri dishes in 0.3% agar in complete media and colonies were counted after 10 days of incubation (21). […]

[1] abbreviates: C81 EBP1 transfectants vs vector controls, real time RT-PCR.
[2] abbreviates: C81 clones transfected with FLAG-tagged EBP1, Western blot.

B1: EBP1: ErbB3 binding protein (SEQ ID NO: 2), AR corepressor, here ectopically expressed in cancer cells by stable transfection of an expression plasmid (protein, listed as Homo sapiens)
chain: MSGEDEQQEQTIAEDLVVTKYKMGGDIANRVLRSLVEASSSGVSVLSLCEKGDAMIMEETGKIFKKEKEMKKGIAFPTSISVNNCVCHFSPLKSDQDYILKEGDLVKIDLGVHVDGFIANVAHTFVVDVAQGTQVTGRKADVIKAAHLCAEAALRLVKPGNQNTQVTEAWNKVAHSFNCTPIEGMLSHQLKQHVIDGEKTIIQNPTDQQKKDHEKAEFEVHEVYAVDVLVSSGEGKAKDAGQRTTIYKRDPSKQYGLKMKTSRAFFSEVERRFDAMPFTLRAFEDEKKARMGVVECAKHELLQPFNVLYEKEGEFVAQFKFTVLLMPNGPMRITSGPFEPDLYKSEMEVQDAELKALLQSSASRKTQKKKKKKASKTAENATSGETLEENEAGD
modifications: FLAG tag
For B1, the “growth inhibition by the withdrawal of androgens” value with LNCaP cells was 60%. Besides, the AGR2 protein result in the assay with C81 cells (C81 EBP1 transfectants in complete media, Western blot) is “decreased”. In addition, the “decrease of secreted PSA protein levels” value in the assay on C81 cells (C81 EBP1 transfectants vs vector controls, ELISA) stood at 60%. Also, in the assay on C81 cells (setting [1]), the “AGR2 mRNA downregulation” value is “over 90%” and the “Kallikrein-2 mRNA downregulation” value was “over 80%”. In addition, the “TSPY mRNA downregulation” value with C81 cells (C81 EBP1 transfectants, real time RT-PCR) is “over 90%”. In the assay with C81 cells (setting [2]), the AR protein level result is “markedly reduced”, the BAD protein level entry is recorded as “remained the same as the vector controls” and the Bcl2 protein level result is “markedly reduced”.

The record behind these values is patent publication US7838495B2, “Compositions and methods of use of EPB1, and ErbB3 binding protein” (University of Maryland, Baltimore, priority 2007, dated 2010).
